From US20170137895, “METHODS OF IDENTIFYING ENZYMES AND MICROORGANISMS” (ZYMONOSTICS APS, published 2017)

T1: Mycobacterium smegmatis topoisomerase I (msTopoI) (Mycobacterium smegmatis, UniProt A0R5D9 A0R5D9:2-936)
T1 sequence: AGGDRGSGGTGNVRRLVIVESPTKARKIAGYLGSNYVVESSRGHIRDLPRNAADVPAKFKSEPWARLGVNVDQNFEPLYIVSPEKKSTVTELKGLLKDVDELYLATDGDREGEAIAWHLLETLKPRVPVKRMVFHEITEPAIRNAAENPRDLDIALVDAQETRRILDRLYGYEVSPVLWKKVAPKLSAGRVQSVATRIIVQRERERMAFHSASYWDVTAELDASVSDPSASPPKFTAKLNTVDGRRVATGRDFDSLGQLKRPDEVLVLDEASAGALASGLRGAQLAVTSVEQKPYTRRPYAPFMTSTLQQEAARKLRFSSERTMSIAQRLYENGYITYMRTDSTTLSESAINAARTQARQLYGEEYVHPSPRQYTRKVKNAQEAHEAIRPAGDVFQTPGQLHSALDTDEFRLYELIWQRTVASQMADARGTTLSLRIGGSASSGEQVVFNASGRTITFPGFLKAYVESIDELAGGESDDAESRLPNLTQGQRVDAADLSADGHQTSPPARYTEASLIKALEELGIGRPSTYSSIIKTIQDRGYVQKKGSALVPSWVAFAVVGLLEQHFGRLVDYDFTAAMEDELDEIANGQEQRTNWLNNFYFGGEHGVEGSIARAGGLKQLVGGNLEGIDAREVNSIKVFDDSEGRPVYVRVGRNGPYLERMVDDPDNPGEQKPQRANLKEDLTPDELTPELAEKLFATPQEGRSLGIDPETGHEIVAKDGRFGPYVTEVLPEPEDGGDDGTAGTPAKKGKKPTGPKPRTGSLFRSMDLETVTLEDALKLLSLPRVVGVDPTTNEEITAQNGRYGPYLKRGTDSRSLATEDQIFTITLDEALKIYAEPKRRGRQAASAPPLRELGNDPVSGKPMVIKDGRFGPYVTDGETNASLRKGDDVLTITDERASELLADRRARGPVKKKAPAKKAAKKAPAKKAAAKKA

B1: HIV LTR substrate (dsDNA)
DNA 1: TTTAGTCAGTGTGGAAAATCTCTAGCAGT
DNA 2: ACTGCTAGAGATTTTCCACACTGACTAAA
modifications: 5' amino-C6-T on both strands, SEQ:6 strand immobilised
B2: msTopoI substrate (ssDNA)
DNA: CAGTGAGCGAGCTTCCGCTTGACATCCCAATAGTTTCTCTTC
modifications: 3' amino-C6, immobilised on CodeLink slide

Tests used:
[1] = molecular target: HIV integrase (Human immunodeficiency virus, UniProt P04585 P04585:1148-1435); experiment: integration of LTR into dsDNA SEQ:12/SEQ:13; MES pH 6.2, 200 mM KCl, 10 mM MnCl2, 10 mM DTT, 37 C; settings: tags: His-tag (pTrcHis), E. coli BL21
[2] = molecular target: T1, Mycobacterium smegmatis topoisomerase I …; experiment: ligation of SEQ:16 oligo to substrate; binding in 1 mM EDTA, 300 mM NaCl, 37 C, then 5 mM MgCl2; no numeric result given
Procedure: Prepare a solution containing msTopol as well as 10 mM Tris-HCl (pH 7.5), 1 mM EDTA, and 300 mM NaCl. Add 5 μL to each printed area (see previous section). Incubate for 1 h at 37° C. in humidity chamber. Wash 3×5 minutes in wash buffer 4. To each printed are, add 5 μL of ligation mixture: 2 μM oligonucleotide ([Btn]CAGTGAGCGTCTGGCTGAAGCTTCCGCT; SEQ ID No: 16); 300 mM NaCl; 1 mM Tris-HCl (pH 7.5); 5 mM MgCl₂. Incubate at 37° C. for 1 h in humidity chamber. Wash for 1 min in wash buffer 2, 1 min in wash buffer 3, and 1 min in 96% ethanol. Let the slide air-dry.

| Binder | binding result [1] | binding result [2] |
| --- | --- | --- |
| B1 | binds |  |
| B2 |  | binds |
